The supplement of paper PMC9170038

System: MS2 coat protein
Assay: apparent KD of MS2 coat protein; designed switch direction (-1 OFF switch, 1 ON switch): -1; higher = weaker reporter binding
Outline: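 Designed RNA switches were transcribed on Illumina chips by stalled E. coli RNA polymerase and titrated with SNAP-549-labelled MS2 coat protein from 0.7 or 1.5 nM, doubling to 3 µM. Step length ran from 0.8–1.5 h at the lowest concentration to 10–20 min at the highest. The apparent KD is the median over clusters for each design, from curve-fitted normalised cluster fluorescence.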

[1] = Eterna round: R95, input ligand: FMN 200 uM
[2] = Eterna round: R95, input ligand: microRNA oligo, concentration not stated
[3] = Eterna round: R95, input ligand: none
[4] = input ligand: microRNA oligo, concentration not stated

Sequence: CCCUUGUGAGGAUAUUUUUAAAAUGCUAACCACAAUUUUAUGAAGAAGGUACAUGAGGAUCACCCAUGUUUCUC [Tried to obey the law of the pack] (Eterna round: R97, puzzle: Exclusion 4)
- apparent KD of MS2 coat protein (input ligand: FMN 200 uM): 20 nM
- apparent KD of MS2 coat protein (input ligand: none): 21 nM

Sequence: ACUGGUGCAGGAUAUACAUUCGUGCUUCGGCACGUAAGAUCACAUGAGGAUCACCCAUGUAGAAGGGCACCAGU [E2/5-D2] (Eterna round: R97, puzzle: Exclusion 2)
- apparent KD of MS2 coat protein (input ligand: FMN 200 uM): 642 nM
- apparent KD of MS2 coat protein (input ligand: none): 81.6 nM

Sequence: CAUGAGGGAGGAUAUACAUGAGGAUCACCCAUGUAACUGGGAGUAGUUCUUCGUAGUCGUAGAAGGCCUGAGGG [Eternabot (L1) Solution 14] (Eterna round: R97, puzzle: Exclusion 3)
- apparent KD of MS2 coat protein (input ligand: FMN 200 uM): 242 nM
- apparent KD of MS2 coat protein (input ligand: none): 723 nM

Sequence: GGUACUAACACGAUAGUGUUAGUACUAUAAGCUUGUGUUACAUGAGGAUCACCCAUGUCCUCAUAAGCUCGUCUUAU [Mat - Sensor v3 - Turn-off var 2 - D77] (puzzle: Sensor v3, turn-off variant 2)
- apparent KD of MS2 coat protein [1]: 95.9 nM
- apparent KD of MS2 coat protein [2]: 50.2 nM
- apparent KD of MS2 coat protein [3]: 98.6 nM

Sequence: ACUCGACAUGAGGAUCACCCAUGUGAGGAUAUGGCCUGUAUGGCGUGAGCUGAAUCAAUCAGAAGGCGCGUGGG [salish99_ex1_r4_053] (Eterna round: R97, puzzle: Exclusion 1)
- apparent KD of MS2 coat protein (input ligand: FMN 200 uM): 105 nM
- apparent KD of MS2 coat protein (input ligand: none): 44.8 nM

Sequence: AGAAGACAUGAGGAUCACCCAUGUAAGGAUAUCGAAGGUAAGAGAGGAAAGAAGUUAACGAGAAGGUACAGGUG [JR_Exclu1_Sub097] (puzzle: Exclusion 1)
- apparent KD of MS2 coat protein [1]: 101 nM
- apparent KD of MS2 coat protein [2]: 123 nM
- apparent KD of MS2 coat protein [3]: 116 nM

Sequence: GCAGUAUGAGUUAGGAUAUGAUGAUUUUUAUUAAAUCAGAAGGAACUUGAGGAUCACCCAAGUAAAGAAUUGGU [JR_BMEx4_Sub069] (Eterna round: R97, puzzle: Brourd's mod of Exclusion 4)
- apparent KD of MS2 coat protein (input ligand: FMN 200 uM): 23.3 nM
- apparent KD of MS2 coat protein (input ligand: none): 20.4 nM

Sequence: UCCUCACAUGAGGAUCACCCAUGUGAGGAUAUGGGCCCGGGCCCGAAAGGGCCCGGGCCCAGAAGGCACUGGGU [MoB_2] (Eterna round: R97, puzzle: Exclusion 1)
- apparent KD of MS2 coat protein (input ligand: FMN 200 uM): 25 nM
- apparent KD of MS2 coat protein (input ligand: none): 56.1 nM

Sequence: UCUCGCAGGCAAGGAUAUCCUACAUUGUUCUGGCCCGGGCAUGCUACAUGAGGAUCACCCAUGUGGGAGAAGGUGCGCCACGGC [Design 32] (Eterna round: R96, puzzle: Exclusion NG 2)
- apparent KD of MS2 coat protein (input ligand: FMN 200 uM): 47.9 nM
- apparent KD of MS2 coat protein [4]: 36 nM
- apparent KD of MS2 coat protein (input ligand: none): 35.4 nM

Sequence: GAUUAUGCGAGCUUUAGGGACAUGAGGAUCACCCAUGUUCGUCUUAUUGGUCUAGGUACACUGACAUACCUAAAUCU [JMF 68] (puzzle: Sensor v3, turn-off variant 1)
- apparent KD of MS2 coat protein [1]: 22.7 nM
- apparent KD of MS2 coat protein [2]: 37.2 nM
- apparent KD of MS2 coat protein [3]: 23 nM

Sequence: UGAUCACAUGAGGAUCACCCAUGUCAGGAUAUCUACAUUGAAGCUUCGGCUUCAAUGUAGAGAAGGGACAUAAU [E1/3-B1] (Eterna round: R97, puzzle: Exclusion 1)
- apparent KD of MS2 coat protein (input ligand: FMN 200 uM): 115 nM
- apparent KD of MS2 coat protein (input ligand: none): 175 nM

Sequence: GUCAGCUCGUCAGGAUAUGCACAUGAGGAUCACCCAUGUAAGAUCAAGCUGCUUCGGCAGCAAGUGCAGAAGGGACGAGCUGAC [ENG2/9-B1] (Eterna round: R96, puzzle: Exclusion NG 2)
- apparent KD of MS2 coat protein (input ligand: FMN 200 uM): 161 nM
- apparent KD of MS2 coat protein [4]: 229 nM
- apparent KD of MS2 coat protein (input ligand: none): 140 nM

Sequence: AAUUCACAUGAGGAUCACCCAUGUGAGGAUAUGGUUUCGCUGGCCGUAGCCAGUGGAACCAGAAGGCGCAUGAU [Mat - Exclusion 1 - JL Mod - D11] (Eterna round: R97, puzzle: Exclusion 1)
- apparent KD of MS2 coat protein (input ligand: FMN 200 uM): 30.7 nM
- apparent KD of MS2 coat protein (input ligand: none): 28.9 nM

Sequence: ACAACUGUUCCCAAGCUUUACAUGAGGAUCACCCAUGUUCGUCAAGAUUUGUACCAUCUAACGUAUGGCUCAAGUAC [Eternabot (L1) Solution 48] (Eterna round: R97, puzzle: Sensor, turn-off variant 1)
- apparent KD of MS2 coat protein (input ligand: FMN 200 uM): 23 nM
- apparent KD of MS2 coat protein (input ligand: none): 24.6 nM

Sequence: GCUGCGCGAGGAUAUGCGGUUUGCGCUGUGGCCCGUGGCGUACAUGAGGAUCACCCAUGUAGAAGGCGUGCGGG [Apr-15 SS2-56] (puzzle: Exclusion 2)
- apparent KD of MS2 coat protein [2]: 10.4 nM

Sequence: UGCGGUGAGGUAAGGAUAUUUGGGCAAUUACGCCCGGAGAAGGUACAUGAGGAUCACCCAUGUGCAGUAAGGCU [Eternabot (L2) Solution 18] (Eterna round: R97, puzzle: Brourd's mod of Exclusion 4)
- apparent KD of MS2 coat protein (input ligand: FMN 200 uM): 122 nM
- apparent KD of MS2 coat protein (input ligand: none): 26.9 nM

Sequence: AGCCACAGAGGAUAUACAUACAUCCAGUAGCGGAUAUCGCUACAUGAGGAUCACCCAUGUAGAAGGCUGUGGCA [Omei Ex2 BD B22] (Eterna round: R97, puzzle: Exclusion 2)
- apparent KD of MS2 coat protein (input ligand: FMN 200 uM): 148 nM
- apparent KD of MS2 coat protein (input ligand: none): 611 nM

Sequence: GCCUCACUUGAGGAUCACCCAAGUCAGGAUAUUCACGGAACUACGUAGUAGUUCGGCCGGAGAAGGGAUUCGGG [Qubexe] (Eterna round: R97, puzzle: Exclusion 1)
- apparent KD of MS2 coat protein (input ligand: FMN 200 uM): 64.8 nM
- apparent KD of MS2 coat protein (input ligand: none): 41.8 nM

Sequence: UAAUGUAUAUAGGAUAUCUAGCUGGAAACAGCUAGAGAAGGAUGUACAUGAGGAUCACCCAUGUAAAUCAAUAG [Ex6/9-A2] (Eterna round: R97, puzzle: Exclusion 6)
- apparent KD of MS2 coat protein (input ligand: FMN 200 uM): 48.3 nM
- apparent KD of MS2 coat protein (input ligand: none): 21.8 nM

Sequence: CCGCAAAUGCAGGAUAUCGUAUCGGAUACGAUACGAGAAGGGUAUACAUGAGGAUCACCCAUGUGUCCUAGCGG [Fiskers Ex 6 - 45] (puzzle: Exclusion 6)
- apparent KD of MS2 coat protein [1]: 23.9 nM
- apparent KD of MS2 coat protein [2]: 20.3 nM
- apparent KD of MS2 coat protein [3]: 21.5 nM

Sequence: CACGUGUCAGGAUAUAGGACAGAUAUAGUCACAAUCUCUGCCUAGAAGGGACAUGAGGAUCACCCAUGUCUAUA [EX4 C.17] (Eterna round: R97, puzzle: Exclusion 4)
- apparent KD of MS2 coat protein (input ligand: FMN 200 uM): 27.6 nM
- apparent KD of MS2 coat protein (input ligand: none): 20.5 nM

Sequence: CAUACACAUGAGGAUCACCCAUGUGAGGAUAUGCGUACGUUGUCCGUAGGCGACGUGCGCAGAAGGCGCUUGGU [JL-ex1-3.18 Eli mod] (puzzle: Exclusion 1)
- apparent KD of MS2 coat protein [2]: 49 nM

Sequence: GCGACGCUACAUGAGGAUCACCCAUGUCCUCACAUGAGAUGGUAGGAUAUUAUAUAUACAUUGUGUGAGAAGGAUCAUCGCCCA [Eternabot solution 2] (Eterna round: R96, puzzle: Exclusion NG 3)
- apparent KD of MS2 coat protein (input ligand: FMN 200 uM): 351 nM
- apparent KD of MS2 coat protein [4]: 74.8 nM
- apparent KD of MS2 coat protein (input ligand: none): 121 nM

Sequence: UUCCGGCAUGUAGGAUAUGGAUCCGAUUAGGAUUUAGAAGGACAUGAGGAUCACCCAUGUGCAUUUAAUUAGUCAUUACCGUUU [EXclNG1-LROPPY06] (Eterna round: R96, puzzle: Exclusion NG 1)
- apparent KD of MS2 coat protein [4]: 34.4 nM

Sequence: AAAUGAUGAGGAUAUACAUGAGGAUCACCCAUGUGUAAAAAUAAAUACACAAAAGAAAGUAGAAGGCAUCAAAA [Ex 3 May 12] (Eterna round: R96, puzzle: Exclusion 3)
- apparent KD of MS2 coat protein [4]: 25.1 nM

Sequence: AGAAAUGCCCAUGGCCACAAGCUUUUCGCUUGUCUUACUACAUGAGGAUCACCCAUGUAACAUGGGCUCCUGAUAAU [Resoriraqu] (puzzle: Sensor v3, turn-off variant 2)
- apparent KD of MS2 coat protein [1]: 12.5 nM
- apparent KD of MS2 coat protein [2]: 11 nM
- apparent KD of MS2 coat protein [3]: 12 nM

Sequence: UUUACAAGCUUUUGAUCCCACAUGAGGAUCACCCAUGUUGCUGCCGUGAGGUAGCUUUUAACAAAUGCUCGUCUUAU [JL TOV1 3.37] (Eterna round: R97, puzzle: Sensor, turn-off variant 1)
- apparent KD of MS2 coat protein (input ligand: FMN 200 uM): 590 nM
- apparent KD of MS2 coat protein (input ligand: none): 690 nM

Sequence: GCGCACCUACCAAAAGGUAGGCCAACAUGAGGAUCACCCAUGUAGGAUAUCGAUUGCUUUGCAGUCGAGAAGGGCAUGAUGCGC [JL ENG3 3.80 Mod 20] (Eterna round: R96, puzzle: Exclusion NG 3)
- apparent KD of MS2 coat protein (input ligand: FMN 200 uM): 17.2 nM
- apparent KD of MS2 coat protein [4]: 14.4 nM
- apparent KD of MS2 coat protein (input ligand: none): 19.9 nM

Sequence: GUGUACUGAGGAUAUACAUGAGGAUCACCCAUGUGAAUAAGAUAGAAUAAGAUAAAGUGUAGAAGGCAGAGUGU [Excluse me!!! 2 - Jieux - Exclusion 3] (puzzle: Exclusion 3)
- apparent KD of MS2 coat protein [2]: 36.9 nM

Sequence: UUUCCACAUGAGGAUCACCCAUGUCAGGAUAUCUCCACAUCUUCGGAUGUGGCGUGUUAGAGAAGGGACAUGUA [EX1 A.22] (Eterna round: R97, puzzle: Exclusion 1)
- apparent KD of MS2 coat protein (input ligand: FMN 200 uM): 104 nM
- apparent KD of MS2 coat protein (input ligand: none): 33.7 nM

Sequence: GGUCCGAGUGUGAGGAUAUGCUGGUCCUUGGAUCAGCAGAAGGCACAUGAGGAUCACCCAUGUGAAGACGGACC [Mat - Exclusion 4 - Eli Mod - D30] (Eterna round: R97, puzzle: Brourd's mod of Exclusion 4)
- apparent KD of MS2 coat protein (input ligand: FMN 200 uM): 537 nM
- apparent KD of MS2 coat protein (input ligand: none): 91.5 nM

Sequence: CCAGCGUAUGUUAGGAUAUGCUGGUCCUUGGAUCAGCAGAAGGAACAUGAGGAUCACCCAUGUAGAAUCGUUGG [Mod of JL 15 - Jieux - Brourd's mod of Exclusion 4] (Eterna round: R97, puzzle: Brourd's mod of Exclusion 4)
- apparent KD of MS2 coat protein (input ligand: FMN 200 uM): 35 nM
- apparent KD of MS2 coat protein (input ligand: none): 20.3 nM

Sequence: CUGAGCUGACGGAGAUCCAACAUGAGGAUCACCCAUGUCUCAAAAGCUUUUUGCUCGUCUUAUCCUCCUCAGUUCAC [Mat - Sensor, turn-off var - Eli Mod - D55] (Eterna round: R97, puzzle: Sensor, turn-off variant 1)
- apparent KD of MS2 coat protein (input ligand: FMN 200 uM): 26.5 nM
- apparent KD of MS2 coat protein (input ligand: none): 22.6 nM

Sequence: CUUAGACAUGAGGAUCACCCAUGUCAGGAUAUCGUCUACCUGUGGAAACACAGGUAGACGAGAAGGGAUGUGUU [SS1 Omei 3] (puzzle: Exclusion 1)
- apparent KD of MS2 coat protein [2]: 37.8 nM
